Literature values in publication PMC5152572.
Like-named read-outs stand apart in the source and are kept apart here.

Assays:
[1] = biological target: IL-1 receptor (Homo sapiens) (UniProt P14778)
[2] = biological target: IL-1 receptor (Homo sapiens) (UniProt P14778); remark: listed apart in the source

Chain of UniProt P14778 (P14778 18-569): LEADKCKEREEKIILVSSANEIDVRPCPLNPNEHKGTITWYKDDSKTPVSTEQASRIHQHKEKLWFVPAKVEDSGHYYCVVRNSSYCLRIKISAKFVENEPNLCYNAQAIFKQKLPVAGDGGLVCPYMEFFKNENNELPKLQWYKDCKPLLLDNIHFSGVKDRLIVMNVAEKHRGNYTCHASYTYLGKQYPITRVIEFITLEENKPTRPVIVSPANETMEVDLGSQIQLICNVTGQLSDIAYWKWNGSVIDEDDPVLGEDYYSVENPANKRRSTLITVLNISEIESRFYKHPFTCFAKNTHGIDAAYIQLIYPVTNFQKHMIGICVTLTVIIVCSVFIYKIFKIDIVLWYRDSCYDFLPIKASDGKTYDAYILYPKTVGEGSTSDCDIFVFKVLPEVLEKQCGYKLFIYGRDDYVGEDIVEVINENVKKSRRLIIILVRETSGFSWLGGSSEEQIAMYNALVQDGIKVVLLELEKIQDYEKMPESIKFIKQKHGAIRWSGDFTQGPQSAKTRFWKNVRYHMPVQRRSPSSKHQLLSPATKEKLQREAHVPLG

Kd [1] [nM] | Kd [2] [nM] | Substance
4 |  | pro-IL-1α (from UniProt P01583)
 | 4.5 | mature IL-1α mature (from UniProt P01583)
